From PMC5668902

Substrate: O=C(O)C(=O)O
Assay: purified protein
Conditions: pH 4.2 acetate buffer, 25 °C, free enzyme, not immobilised

B1: Oxalate decarboxylase (OxDC), wild type, His6-tagged (Bacillus subtilis subsp. subtilis str. 168) (protein)
chain: MKKQNDIPQPIRGDKGATVKIPRNIERDRQNPDMLVPPETDHGTVSNMKFSFSDTHNRLEKGGYAREVTVRELPISENLASVNMRLKPGAIRELHWHKEAEWAYMIYGSARVTIVDEKGRSFIDDVGEGDLWYFPSGLPHSIQALEEGAEFLLVFDDGSFSENSTFQLTDWLAHTPKEVIAANFGVTKEEISNLPGKEKYIFENQLPGSLKDDIVEGPNGEVPYPFTYRLLEQEPIESEGGKVYIADSTNFKVSKTIASALVTVEPGAMRELHWHPNTHEWQYYISGKARMTVFASDGHARTFNYQAGDVGYVPFAMGHYVENIGDEPLVFLEIFKDDHYADVSLNQWLAMLPETFVQAHLDLGKDFTDVLSKEKHPVVKKKCSK
B1 gave a Km of 12 ± 3 mM, a kcat of 158 ± 13 s⁻¹ and a kcat/Km of 13000 ± 3000 M⁻¹ s⁻¹.
